From patent publication US9745607B2, “Methods of producing 6-carbon chemicals using 2,6-diaminopimelate as precursor to 2-aminopimelate” (INVISTA North America S.á r.l., priority 2014, dated 2017)

How the values were obtained:
Type in all cases: biochemical
[1] = ω-transaminase enzyme activity assay, reverse direction (6-aminohexanoate to adipate semialdehyde); conditions: cell free extract, 10 mM 6-aminohexanoate, 10 mM pyruvate, pH 7.5, 25° C., 24 h, RP-HPLC, against the empty vector control
Protocol: (§1) A nucleotide sequence encoding a His-tag was added to the genes from Chromobacterium violaceum, Pseudomonas aeruginosa, Pseudomonas syringae, Rhodobacter sphaeroides, and Vibrio Fluvialis encoding the ω-transaminases of SEQ ID NOs: 8, 9, 10, 11 and 13, respectively (see FIG. 20E and FIG. 20F) such that N-terminal HIS tagged ω-transaminases could be produced. Each of the resulting modified genes was cloned into a pET21a expression vector under control of the T7 promoter and each expression vector was transformed into a BL21[DE3] E. coli host. The resulting recombinant E. coli strains were cultivated at 37° C. in a 250 mL shake flask culture containing 50 mL LB media and antibiotic selection pressure, with shaking at 230 rpm. Each culture was induced overnight at 16° C. using 1 mM IPTG.
(§2) The pellet from each induced shake flask culture was harvested via centrifugation. Each pellet was resuspended and lysed via sonication. The cell debris was separated from the supernatant via centrifugation and the cell free extract was used immediately in enzyme activity assays.
Enzyme activity assays in the reverse direction (i.e., 6-aminohexanoate to adipate semialdehyde) were performed in a buffer composed of a final concentration of 50 mM HEPES buffer (pH=7.5), 10 mM 6-aminohexanoate, 10 mM pyruvate and 100 μM pyridoxyl 5′ phosphate. Each enzyme activity assay reaction was initiated by adding cell free extract of the ω-transaminase gene product or the empty vector control to the assay buffer containing the 6-aminohexanoate and incubated at 25° C. for 24 h, with shaking at 250 rpm. The formation of L-alanine from pyruvate was quantified via RP-HPLC.

[2] = ω-transaminase enzyme activity assay, forward direction (adipate semialdehyde to 6-aminohexanoate); conditions: cell free extract, 10 mM adipate semialdehyde, 10 mM L-alanine, pH 7.5, 25° C., 4 h, RP-HPLC, against the empty vector control
Protocol: as §1, §2
Enzyme activity in the forward direction (i.e., adipate semialdehyde to 6-aminohexanoate) was confirmed for the transaminases of SEQ ID NO 8, SEQ ID NO 9, SEQ ID NO 10, SEQ ID NO 11 and SEQ ID NO 13. Enzyme activity assays were performed in a buffer composed of a final concentration of 50 mM HEPES buffer (pH=7.5), 10 mM adipate semialdehyde, 10 mM L-alanine and 100 μM pyridoxyl 5′ phosphate. Each enzyme activity assay reaction was initiated by adding a cell free extract of the ω-transaminase gene product or the empty vector control to the assay buffer containing the adipate semialdehyde and incubated at 25° C. for 4 h, with shaking at 250 rpm. The formation of pyruvate was quantified via RP-HPLC.

[3] = carboxylate reductase enzyme activity assay (adipate semialdehyde to hexanedial); conditions: purified enzyme enhanced by the gene product of sfp, 2 mM adipate semialdehyde, pH 7.5, room temperature, 20 min, against the empty vector control
Protocol: The N-terminal His-tagged carboxylate reductase of SEQ ID NO 7 (see Example 2 and FIG. 20E) was assayed using adipate semialdehyde as substrate. The enzyme activity assay was performed in triplicate in a buffer composed of a final concentration of 50 mM HEPES buffer (pH=7.5), 2 mM adipate semialdehyde, 10 mM MgCl2, 1 mM ATP and 1 mM NADPH. The enzyme activity assay reaction was initiated by adding purified carboxylate reductase and phosphopantetheine transferase or the empty vector control to the assay buffer containing the adipate semialdehyde and then incubated at room temperature for 20 min. The consumption of NADPH was monitored by absorbance at 340 nm.

Molecule	ω-transaminase activity: acceptance of 6-aminohexanoate as substrate (formation of L-alanine from pyruvate) [1]	ω-transaminase activity: acceptance of adipate semialdehyde as substrate (formation of pyruvate from L-alanine) [2]	carboxylate reductase activity: acceptance of adipate semialdehyde as substrate (consumption of NADPH, absorbance at 340 nm) [3]
SEQ ID NO 9: Pseudomonas aeruginosa ω-transaminase, N-terminal HIS tagged (protein, listed as Pseudomonas aeruginosa, N-terminal His tag, Pseudomonas aeruginosa ω-transaminase, N-terminal HIS tagged) MNARLHATSPLGDADLVRADQAHYMHGYHVFDDHRVNGSLNIAAGDGAYIYDTAGNRYLDAVGGMWCTNIGLGREEMARTVAEQTRLLAYSNPFCDMANPRAIELCRKLAELAPGDLDHVFLTTGGSTAVDTAIRLMHYYQNCRGKRAKKHVITRINAYHGSTFLGMSLGGKSADRPAEFDFLDERIHHLACPYYYRAPEGLGEAEFLDGLVDEFERKILELGADRVGAFISEPVFGSGGVIVPPAGYHRRMWELCQRYDVLYISDEVVTSFGRLGHFFASQAVFGVQPDIILTAKGLTSGYQPLGACIFSRRIWEVIAEPDKGRCFSHGFTYSGHPVACAAALKNIEIIEREGLLAHADEVGRYFEERLQSLRDLPIVGDVRGMRFMACVEFVADKASKALFPESLNIGEWVHLRAQKRGLLVRPIVHLNVMSPPLILTREQVDTVVRVLRESIEETVEDLVRAGHR	–	accepted adipate semialdehyde as substrate	–
SEQ ID NO 8: Chromobacterium violaceum ω-transaminase, N-terminal HIS tagged (protein, listed as Chromobacterium violaceum, N-terminal His tag, Chromobacterium violaceum ω-transaminase, N-terminal HIS tagged) MQKQRTTSQWRELDAAHHLHPFTDTASLNQAGARVMTRGEGVYLWDSEGNKIIDGMAGLWCVNVGYGRKDFAEAARRQMEELPFYNTFFKTTHPAVVELSSLLAEVTPAGFDRVFYTNSGSESVDTMIRMVRRYWDVQGKPEKKTLIGRWNGYHGSTIGGASLGGMKYMHEQGDLPIPGMAHIEQPWWYKHGKDMTPDEFGVVAARWLEEKILEIGADKVAAFVGEPIQGAGGVIVPPATYWPEIERICRKYDVLLVADEVICGFGRTGEWFGHQHFGFQPDLFTAAKGLSSGYLPIGAVFVGKRVAEGLIAGGDFNHGFTYSGHPVCAAVAHANVAALRDEGIVQRVKDDIGPYMQKRWRETFSRFEHVDDVRGVGMVQAFTLVKNKAKRELFPDFGEIGTLCRDIFFRNNLIMRACGDHIVSAPPLVMTRAEVDEMLAVAERCLEEFEQTLKARGLA	accepted 6-aminohexanote as substrate	accepted adipate semialdehyde as substrate	–
SEQ ID NO 7: Segniliparus rotundus carboxylate reductase, N-terminal HIS tagged (protein, listed as Segniliparus rotundus, N-terminal His tag, Segniliparus rotundus carboxylate reductase, N-terminal HIS tagged) MTQSHTQGPQASAAHSRLARRAAELLATDPQAAATLPDPEVVRQATRPGLRLAERVDAILSGYADRPALGQRSFQTVKDPITGRSSVELLPTFDTITYRELRERATAIASDLAHHPQAPAKPGDFLASIGFISVDYVAIDIAGVFAGLTAVPLQTGATLATLTAITAETAPTLFAASIEHLPTAVDAVLATPSVRRLLVFDYRAGSDEDREAVEAAKRKIADAGSSVLVDVLDEVIARGKSAPKAPLPPATDAGDDSLSLLIYTSGSTGTPKGAMYPERNVAHFWGGVWAAAFDEDAAPPVPAINITFLPLSHVASRLSLMPTLARGGLMHFVAKSDLSTLFEDLKLARPTNLFLVPRVVEMLYQHYQSELDRRGVQDGTREAEAVKDDLRTGLLGGRILTAGFGSAPLSAELAGFIESLLQIHLVDGYGSTEAGPVWRDGYLVKPPVTDYKLIDVPELGYFSTDSPHPRGELAIKTQTILPGYYKRPETTAEVFDEDGFYLTGDVVAQIGPEQFAYVDRRKNVLKLSQGEFVTLAKLEAAYSSSPLVRQLFVYGSSERSYLLAVIVPTPDALKKFGVGEAAKAALGESLQKIARDEGLQSYEVPRDFIIETDPFTVENGLLSDARKSLRPKLKEHYGERLEAMYKELADGQANELRDIRRGVQQRPTLETVRRAAAAMLGASAAEIKPDAHFTDLGGDSLSALTFSNFLHDLFEVDVPVGVIVSAANTLGSVAEHIDAQLAGGRARPTFATVHGKGSTTIKASDLTLDKFIDEQTLEAAKHLPKPADPPRTVLLTGANGWLGRFLALEWLERLAPAGGKLITIVRGKDAAQAKARLDAAYESGDPKLAGHYQDLAATTLEVLAGDFSEPRLGLDEATWNRLADEVDFISHPGALVNHVLPYNQLFGPNVAGVAEIIKLAITTRIKPVTYLSTVAVAAGVEPSALDEDGDIRTVSAERSVDEGYANGYGNSKWGGEVLLREAHDRTGLPVRVFRSDMILAHQKYTGQVNATDQFTRLVQSLLATGLAPKSFYELDAQGNRQRAHYDGIPVDFTAESITTLGGDGLEGYRSYNVFNPHRDGVGLDEFVDWLIEAGHPITRIDDYDQWLSRFETSLRGLPESKRQASVLPLLHAFARPGPAVDGSPFRNTVFRTDVQKAKIGAEHDIPHLGKALVLKYADDIKQLGLL	–	–	accepted adipate semialdehyde as substrate

More lines, main results first:

ω-transaminase activity: acceptance of 6-aminohexanoate as substrate (formation of L-alanine from pyruvate) [1]	Molecule	ω-transaminase activity: acceptance of adipate semialdehyde as substrate (formation of pyruvate from L-alanine) [2]	carboxylate reductase activity: acceptance of adipate semialdehyde as substrate (consumption of NADPH, absorbance at 340 nm) [3]
accepted 6-aminohexanote as substrate	SEQ ID NO 11: Rhodobacter sphaeroides ω-transaminase, N-terminal HIS tagged	accepted adipate semialdehyde as substrate	–
accepted 6-aminohexanote as substrate	SEQ ID NO 10: Pseudomonas syringae ω-transaminase, N-terminal HIS tagged (protein, listed as Pseudomonas syringae, N-terminal His tag, Pseudomonas syringae ω-transaminase, N-terminal HIS tagged) MSANNPQTLEWQALSSEHHLAPFSDYKQLKEKGPRIITRAEGVYLWDSEGNKILDGMSGLWCVAIGYGREELADAASKQMRELPYYNLFFQTAHPPVLELAKAISDIAPEGMNHVFFTGSGSEGNDTMLRMVRHYWALKGQPNKKTIISRVNGYHGSTVAGASLGGMTYMHEQGDLPIPGVVHIPQPYWFGEGGDMTPDEFGIWAAEQLEKKILELGVENVGAFIAEPIQGAGGVIVPPDSYWPKIKEILSRYDILFAADEVICGFGRTSEWFGSDFYGLRPDMMTIAKGLTSGYVPMGGLIVRDEIVAVLNEGGDFNHGFTYSGHPVAAAVALENIRILREEKIVERVRSETAPYLQKRLRELSDHPLVGEVRGVGLLGAIELVKDKTTRERYTDKGAGMICRTFCFDNGLIMRAVGDTMIIAPPLVISFAQIDELVEKARTCLDLTLAVLQG	accepted adipate semialdehyde as substrate	–
accepted 6-aminohexanote as substrate	SEQ ID NO 13: Vibrio fluvialis ω-transaminase, N-terminal HIS tagged (protein, listed as Vibrio fluvialis, N-terminal His tag, Vibrio fluvialis ω-transaminase, N-terminal HIS tagged) MNKPQSWEARAETYSLYGFTDMPSLHQRGTVVVTHGEGPYIVDVNGRRYLDANSGLWNMVAGFDHKGLIDAAKAQYERFPGYHAFFGRMSDQTVMLSEKLVEVSPFDSGRVFYTNSGSEANDTMVKMLWFLHAAEGKPQKRKILTRWNAYHGVTAVSASMTGKPYNSVFGLPLPGFVHLTCPHYWRYGEEGETEEQFVARLARELEETIQREGADTIAGFFAEPVMGAGGVIPPAKGYFQAILPILRKYDIPVISDEVICGFGRTGNTWGCVTYDFTPDAIISSKNLTAGFFPMGAVILGPELSKRLETAIEAIEEFPHGFTASGHPVGCAIALKAIDVVMNEGLAENVRRLAPRFEERLKHIAERPNIGEYRGIGFMWALEAVKDKASKTPFDGNLSVSERIANTCTDLGLICRPLGQSVVLCPPFILTEAQMDEMFDKLEKALDKVFAEVA	accepted adipate semialdehyde as substrate	–
